{
  "source": "patent US20110145940",
  "about": "“TAL EFFECTOR-MEDIATED DNA MODIFICATION” (published 2011)",
  "molecular_target": "AvrBs3 TALEN (BamHI fragment-FokI) (Xanthomonas campestris pv. vesicatoria, UniProt P14727 SEQ:26-1141)",
  "assay": "cell_activity; yeast lacZ SSA assay, 18 bp spacer; optima 15 and 21 bp",
  "settings": "tags: FokI catalytic domain fusion, N-terminal NLS; chain copies: 2 (inferred); two sites in inverted orientation around spacer",
  "data": [
    {"binder": "AvrBs3 site (dsDNA) DNA 1: ATATAAACCTAACCATCC DNA 2: GGATGGTTAGGTTTATAT", "values": [
      {"measurement": "activity", "value": "15.8 fold over target-only control"}
    ]}
  ]
}
